Test results: US20030194402A1

T1: human lymphotoxin (TNFβ) (human) (UniProt P01374)
T1 sequence (looked up): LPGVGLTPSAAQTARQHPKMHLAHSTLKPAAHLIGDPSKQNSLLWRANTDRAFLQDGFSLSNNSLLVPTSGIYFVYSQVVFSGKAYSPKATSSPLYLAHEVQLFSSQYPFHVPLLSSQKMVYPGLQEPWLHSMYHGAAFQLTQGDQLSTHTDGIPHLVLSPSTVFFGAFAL

B1: chimeric mouse/human IgG1 anti-platelet mAb (7E3) (antibody, INN chains, looked up, V domains shown)
VH: EVQLQQSGTVLARPGASVKMSCEASGYTFTNYWMHWVKQRPGQGLEWIGAIYPGNSDTSYIQKFKGKAKLTAVTSTTSVYMELSSLTNEDSAVYYCTLYDGYYVFAYWGQGTLVTVSA
VL: EIVLTQSPVTLSVTPGDSVSLSCRASRDISNNLHWFQQTSHESPRLLIKYASQSMSGIPSRFSGSGSGTDFTLSINSVETEDFGMYFCQQTNSWPYTFGGGTKLEIK
modifications: IgG1

How the values were obtained:
[1] = target: T1, human lymphotoxin (TNFβ) (human); assay: cell-based or functional assay
[2] = target: human tumor necrosis factor-α (TNFα) (human) (UniProt P01375); assay: cell-based or functional assay
Sequence of human tumor necrosis factor-α (TNFα) (human) (P01375 77-233): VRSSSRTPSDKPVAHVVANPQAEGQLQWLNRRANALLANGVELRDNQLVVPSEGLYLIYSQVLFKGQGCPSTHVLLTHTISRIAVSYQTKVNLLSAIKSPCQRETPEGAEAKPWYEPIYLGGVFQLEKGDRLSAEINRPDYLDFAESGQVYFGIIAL

| Molecule | amount needed for the same degree of TNFβ inhibition, against p75P-sf2 [1] [fold] | IL-6 in supernatant of FS-4 fibroblasts after 18 h; TNF 0.3 ng/ml, antibody 4 µg/ml [2] [ng/mL] | IL-6 in supernatant of FS-4 fibroblasts after 18 h; TNF 1.5 ng/ml, antibody 4 µg/ml [2] [ng/mL] | IL-6 in supernatant of FS-4 fibroblasts after 18 h; TNF 7.5 ng/ml, antibody 4 µg/ml [2] [ng/mL] |
| --- | --- | --- | --- | --- |
| p55-sf2 (p55 TNF receptor/IgG1 heavy chain single fusion with truncated light chain JCK) (from UniProt P19438 3-159) (Fc fusion) | 3 | – | – | – |
| B1 | – | 1.6 | 1.96 | 2.16 |
